Measured values published in IntAct's records for PubMed 17693255.

B1: Hamartin (Homo sapiens), Q92574 (parent)
chain: MAQQANVGELLAMLDSPMLGVRDDVTAVFKENLNSDRGPMLVNTLVDYYLETSSQPALHILTTLQEPHDKHLLDRINEYVGKAATRLSILSLLGHVIRLQPSWKHKLSQAPLLPSLLKCLKMDTDVVVLTTGVLVLITMLPMIPQSGKQHLLDFFDIFGRLSSWCLKKPGHVAEVYLVHLHASVYALFHRLYGMYPCNFVSFLRSHYSMKENLETFEEVVKPMMEHVRIHPELVTGSKDHELDPRRWKRLETHDVVIECAKISLDPTEASYEDGYSVSHQISARFPHRSADVTTSPYADTQNSYGCATSTPYSTSRLMLLNMPGQLPQTLSSPSTRLITEPPQATLWSPSMVCGMTTPPTSPGNVPPDLSHPYSKVFGTTAGGKGTPLGTPATSPPPAPLCHSDDYVHISLPQATVTPPRKEERMDSARPCLHRQHHLLNDRGSEEPPGSKGSVTLSDLPGFLGDLASEEDSIEKDKEEAAISRELSEITTAEAEPVVPRGGFDSPFYRDSLPGSQRKTHSAASSSQGASVNPEPLHSSLDKLGPDTPKQAFTPIDLPCGSADESPAGDRECQTSLETSIFTPSPCKIPPPTRVGFGSGQPPPYDHLFEVALPKTAHHFVIRKTEELLKKAKGNTEEDGVPSTSPMEVLDRLIQQGADAHSKELNKLPLPSKSVDWTHFGGSPPSDEIRTLRDQLLLLHNQLLYERFKRQQHALRNRRLLRKVIKAAALEEHNAAMKDQLKLQEKDIQMWKVSLQKEQARYNQLQEQRDTMVTKLHSQIRQLQHDREEFYNQSQELQTKLEDCRNMIAELRIELKKANNKVCHTELLLSQVSQKLSNSESVQQQMEFLNRQLLVLGEVNELYLEQLQNKHSDTTKEVEMMKAAYRKELEKNRSHVLQQTQRLDTSQKRILELESHLAKKDHLLLEQKKYLEDVKLQARGQLQAAESRYEAQKRITQVFELEILDLYGRLEKDGLLKKLEEEKAEAAEAAEERLDCCNDGCSDSMVGHNEEASGHNGETKTPRPSSARGSSGSRGGGGSSSSSSELSTPEKPPHQRAGPFSSRWETTMGEASASIPTTVGSLPSSKSFLGMKARELFRNKSESQCDEDGMTSSLSESLKTELGKDLGVEAKIPLNLDGPHPSPPTPDSVGQLHIMDYNETHHEHS

Variants of: B1
Conditions: with tsc2_human TSC2, P49815
Chain of tsc2_human TSC2, P49815 (P49815 whole entry): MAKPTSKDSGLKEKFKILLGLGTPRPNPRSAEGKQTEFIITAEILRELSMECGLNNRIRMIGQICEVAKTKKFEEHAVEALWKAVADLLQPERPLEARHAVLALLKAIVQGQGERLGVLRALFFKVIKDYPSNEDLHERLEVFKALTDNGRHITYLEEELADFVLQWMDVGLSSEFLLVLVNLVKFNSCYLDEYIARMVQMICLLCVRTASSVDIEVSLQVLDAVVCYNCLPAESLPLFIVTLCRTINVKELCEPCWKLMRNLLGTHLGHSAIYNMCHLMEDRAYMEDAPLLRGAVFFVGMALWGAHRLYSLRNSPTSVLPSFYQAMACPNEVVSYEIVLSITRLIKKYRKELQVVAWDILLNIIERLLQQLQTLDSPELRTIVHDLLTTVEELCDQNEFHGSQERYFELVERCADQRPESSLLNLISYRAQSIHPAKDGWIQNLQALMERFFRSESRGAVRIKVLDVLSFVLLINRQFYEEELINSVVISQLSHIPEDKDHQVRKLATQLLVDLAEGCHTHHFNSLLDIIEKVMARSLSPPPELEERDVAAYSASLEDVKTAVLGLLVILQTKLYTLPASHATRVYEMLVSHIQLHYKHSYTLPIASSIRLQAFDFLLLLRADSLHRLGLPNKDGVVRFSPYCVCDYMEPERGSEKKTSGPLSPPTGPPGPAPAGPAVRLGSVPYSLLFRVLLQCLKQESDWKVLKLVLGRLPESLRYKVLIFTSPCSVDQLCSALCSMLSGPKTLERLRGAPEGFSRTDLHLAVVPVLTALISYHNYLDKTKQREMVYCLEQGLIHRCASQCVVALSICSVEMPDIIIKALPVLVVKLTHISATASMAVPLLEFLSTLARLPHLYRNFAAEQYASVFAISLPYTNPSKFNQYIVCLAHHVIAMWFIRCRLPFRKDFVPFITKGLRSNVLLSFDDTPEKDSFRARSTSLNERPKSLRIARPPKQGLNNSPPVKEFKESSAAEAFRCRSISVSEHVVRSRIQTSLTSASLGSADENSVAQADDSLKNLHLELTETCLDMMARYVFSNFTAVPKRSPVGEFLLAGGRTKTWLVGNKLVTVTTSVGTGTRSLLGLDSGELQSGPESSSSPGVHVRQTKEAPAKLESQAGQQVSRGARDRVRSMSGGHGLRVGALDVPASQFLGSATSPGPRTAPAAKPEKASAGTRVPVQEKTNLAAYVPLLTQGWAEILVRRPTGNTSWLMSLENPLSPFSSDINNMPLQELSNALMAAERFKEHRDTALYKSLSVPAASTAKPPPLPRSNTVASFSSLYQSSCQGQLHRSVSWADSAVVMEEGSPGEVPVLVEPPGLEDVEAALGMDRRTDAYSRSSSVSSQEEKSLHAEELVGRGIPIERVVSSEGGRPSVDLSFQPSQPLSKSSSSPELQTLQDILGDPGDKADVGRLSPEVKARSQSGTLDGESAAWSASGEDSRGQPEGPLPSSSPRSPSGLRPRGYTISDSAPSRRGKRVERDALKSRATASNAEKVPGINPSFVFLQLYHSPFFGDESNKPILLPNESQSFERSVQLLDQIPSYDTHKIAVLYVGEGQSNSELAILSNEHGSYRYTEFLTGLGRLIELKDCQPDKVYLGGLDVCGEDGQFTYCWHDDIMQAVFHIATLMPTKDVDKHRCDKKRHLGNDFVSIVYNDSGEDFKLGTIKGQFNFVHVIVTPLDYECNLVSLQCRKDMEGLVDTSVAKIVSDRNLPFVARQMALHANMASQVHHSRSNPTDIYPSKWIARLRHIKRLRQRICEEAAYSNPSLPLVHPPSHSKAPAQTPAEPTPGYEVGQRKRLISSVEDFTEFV

Variant | effect of a mutation on the interaction
S487D;S511D | decreasing interaction
